Assay: soluble fraction after stress (log2 fold change); higher = more stays soluble; pooled small domains, quantitative proteomics
Settings: stress: pH 4
Outline: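 With high-throughput quantitative proteomics, pooled custom libraries of small protein domains were measured after pH 4 stress. Each domain's soluble amount after the stress gives a fold change taken as aggregation propensity. Higher log2 values mean more of the domain stayed soluble.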

First: HMAKRKYKSFKDVAEFAQKLGIKSSTEWWAYVRGHEIPSDIPKDPSTYYKKEWTTWGDFLGTGYVSSA
Second: HMDREILWTNYVAARKQEFIASSIDTIGAEYLDNRRFWDTQFEREWTIIAERLASGFGLTDDILSIVGSDF
The “soluble fraction (log2)” value of the first is higher: no less than 0.43 for the first, -2.71 for the second.

“HMRTVLSDETYLRIREMLLTHDIAPGERINIDALARELDVSQTPVREALARLESEDLVTKEPLRGYTATK” and “HMQAATGVVTASVLNIRQGPGTNYTKVGSLLKGAQVEIVGQNGAWSKIRLKSGITGWVNSSYLKTST” are within 0.2 log units of each other in “soluble fraction (log2)” value: -0.123 for the first, -0.085 for the second.

Going from “HMAIKWTPEIEDEVSNKLKEKWSPEQISAWLKKNKSIMISHQRIYQFIVEDKMSGGNLYRNLRQ” to “HMTNPPTPADTLFNTVRGVLQSILKSPMKDTEVASALNVSKAQARSWLQRLSDEGLIEKRKNPTAYVL”, the “soluble fraction (log2)” value falls from 0.172 to -0.321.

Compared with “HMEDETAKVLRLLAENNGYLPYNDKSDPTDIYAFFGMSKKAFKMTTGNLYKQKKIQFTQTGIQLIE”, “HMRTYEHALTEEEKELILIVSNLSEYKSLPPSQIVPKLADLGIYIASESSFYRVLRAHNQLHHRGR” is lower in “soluble fraction (log2)” value: -0.16 for the first, -1.27 for the second.

First: HMGDITIPDLQGMSFDQAREKLKALGLSIGKISYTSDTSKDDGVVISQGLQAGGKASKGATVDITINET
Second: HMDENDPYEILEIDRLASDDQVKAKYRALIRENHPDVLMAKGVPQEFIDLANRKMAVINAAYDRIEKEREF
The “soluble fraction (log2)” value of the first is higher: -0.177 for the first, -0.616 for the second.

First: HMIPDGKWKEDPISDGQKNFINSLIEQAIDAGQDELGAEAKKYLASGEATKGNASAMIDKLKSAL
Second: HMRNAAGGIYGWMTLHQVAETVKLTEEEVIAITNLPAGIPRDVSLKNIEGVNDEELRALLEAYLEKQ
The “soluble fraction (log2)” value of the first is higher: 0.398 for the first, -0.968 for the second.

Compared with “HMKSDVVFDITDGTVKAMLKFNRSDVTILNNDGKNYYLFTANGEFTFKYQDGSGEYYEKTVYVDWLEDE”, “HMQGVTVPDLTRVSLEEAVATISSLGLRYEISDRRSNAAFPANYVLDQAPGANTIVKPNRKVYLTVNAA” is higher in “soluble fraction (log2)” value: -1.56 for the first, 0.381 for the second.

First: HMGEKTVPNVIGQKLATAKQLLEKEGLTVGSTSYNKNQADKDTVLSTDPAPGSHLSEGAKVNLTLSSGA
Second: HMNARSTSYSDFIARVDKDEVASVRLDGETVTYQAADGTTYTTVKPESDPIAERLIAKGIEVNVVRQ
The “soluble fraction (log2)” value of the first is higher: 0.0205 for the first, -0.519 for the second.

First: HMRDADRYAFMQENVEDFAKDMRRKHMTYDVLYEEYIRRTDNPYGYTQFKAIVQEYEKNHDYK
Second: HMSSIHQDAKQQLHEYIRTYIQPLMRAGKQVTVWDIIGHVTIRKPKLVQKIGTQQLINMVQDLLE
The “soluble fraction (log2)” value of the first is higher: 0.253 for the first, -0.302 for the second.

Going from “HMSEHLTLVVSDEDAGHRVDQFLVSRLAHMTRSQIQKLIKDGQVTIDTKLVRASTTVHTDNIVTIEFPPAV” to “HMGDIQFMEYRINHSSGWIGKNISDFAAVSKNLVILIKRGQDVVIPRGPTAIMEDDVLVLHA”, the “soluble fraction (log2)” value falls from 0.314 to -1.15.

“HMNASVIADLFRQTGASVMIHGHTHRPDIHALEANGDAAFRAVLGAWHTEGSMIRVTQDDVTLIAFP” and “HMYSINKTEFGERIKSAREELKMTQTQLAQLLKTSQTTVAKYEHGEQIPRADVLATISKATGKSTDWLLFG” are within 0.2 log units of each other in “soluble fraction (log2)” value: 0.173 for the first, 0.11 for the second.

Going from “HMHLKRQEAINLGAYLLGAELRIHRLSLEELGSERIDEMLAAINYKTLDDLLADIGLGNRPARFVARQLG” to “HMEGVSPQTVQEHIRRFIAAEDPASPLSDEALREALGNLGINASRRTVAKYRGEMGIPSSAQRKR”, the “soluble fraction (log2)” value rises from -1.65 to 0.00892.

“HMYSLGPKERSIVSFIANRPGSRSGQIAKSLQIPLPTIKRILNGLVENKVIARHGIGAGTNYVVEDQA” and “HMEYRVRDKMTDILELLTEHRGRIALRDAFPTGTREELLAAFLALLELTKMQTVIVYQDRLYDDIQIVMK” are within 0.2 log units of each other in “soluble fraction (log2)” value: 0.0323 for the first, 0.22 for the second.

First: HMVTNELFGTRLRAFRKEKGLTIEQLAERVGLSPNYLGDIERGKKLPSMATFIRLVNELDISADEL
Second: HMDLPDFTSRERDILARVVQGDSNERIAASLGVSVSTVKTHIGNILRKTGQTNRVRLIVWATRHL
The “soluble fraction (log2)” value of the first is higher: 0.174 for the first, -0.37 for the second.

Going from “HMQDFEQNLFDGKSIYDRMLSKFSLHNVDVKQLVAHFKRKDTEQFFADIGRGLITSAQMLGFLQT” to “HMRLATSELVYRIRALIRDQELQPGERLGSERALAQSLGISRSDLRMALAVLEASHEVIRKIGRAGGIVVS”, the “soluble fraction (log2)” value rises from -0.219 to no less than 0.43.

Going from “HMTSEVLTNATIVKMVKAKLSDDIIIDEINNARVNFDVSPEGIKSLTAQNVTEPVIETMKKAVAAQESI” to “HMNAESLIGDRAVVTVAIERNKRGRVDVTGQDWAATTRDGEEIKVGQEVLVVGISGVALIVEER”, the “soluble fraction (log2)” value falls from 0.428 to 0.164.

Going from “HMSTVISPLPGNIIKVLVPEGKSVKRGDTILTIESMKMENSIKAAYDGVVKKIYVQQAQIVMQGDPLFDL” to “HMAPRQDIAYYTVKPGDTVLAIAEKFGLQPETLMWSNSIIEQNPDRLSIGDELRILPVDGVLHVVK”, the “soluble fraction (log2)” value rises from -1.05 to -0.666.

First: HMNTTTTKVVSVSSLNMRSGPSTSYNIIEVLTKDTQVEVISVEDGWAKIKYNSKTGYVSNQYLSDKK
Second: HMENIIFDIGFHKGEDTLFYLLKGYRVIAVDADPDLINEWQNIFKKYIENGKLLLLNYVISDT
The “soluble fraction (log2)” value of the first is higher: -0.0101 for the first, -1.18 for the second.

Going from “HMSETQDQTTIEIEDMITVGTLAERLSIPVSTLIGELMKNGVMATVNEKIDFDTAQIIVGELKLPIELSKK” to “HMVLANLQAAEQGDLGIKEGEKLTILQTRPDGWWTARNANGETGLVPK”, the “soluble fraction (log2)” value rises from -0.269 to 0.0851.

Compared with “HMKNANGYGSITKLKGNRRKPYMVRITVGRDENGFPIRKVLGYYSSKANAVAALSDYNREPYDI”, “HMIAALEGKQAMVLDQVSLHHGQVKLGGEVWTARPLNDQDVYEPGDRVTVMRIDGATAVVWRN” is higher in “soluble fraction (log2)” value: -0.281 for the first, -0.0548 for the second.

Going from “HMENISVESKMKLLLKSLKTRDFISLPELVLKGESKLAISVILVAALELNRKGYIEVVQAEQFGEIYFKNT” to “HMKGEIEELLYEEVTKDNNTTFLRIYIKLNDEYNTLLNLGIIGIKTEEKVNELVNLGYKKVL”, the “soluble fraction (log2)” value falls from 0.0399 to -2.54.

“HMGALSLDMLFDRFDALQEQSMGDKTEGGQELRGMIRTFIEQEKLDIRVTRTTTNAALLEMIEKEMQG” and “HMENEIPVPELVGMSEADAAAKLASLGLERDTQREATADEESVGKVLRQEPTPGEYVDEGHKVTIWVGE” are within 0.2 log units of each other in “soluble fraction (log2)” value: 0.0204 for the first, 0.22 for the second.

First: HMDDFITLVIHTPAHAQNLRNILESHGMEVRLEDFVSFKSPVAVAQRVKIRPKDLPLALKIIESGE
Second: HMLDGFEVGMTVMRKPGTETGFTGWPPFADKDEFPVIERIDTSDSTLLLRFNDTSWWINASLVEPSDV
The “soluble fraction (log2)” value of the first is higher: 0.126 for the first, -0.729 for the second.

Going from “HMLAGVDTLADRELEVFQMLGRGKSTKEIAQVLNLGESTVETYRARIKEKLQLRSAAELYLRAGQWVRDHG” to “HMTGDNQTIGGGGFHHVAIRAHDFDASVKFYGETLGFREKIAWGEGDKRAIMMDTGDGNYIEIF”, the “soluble fraction (log2)” value rises from -0.426 to -0.0678.

“HMSSDLLGVRVRRARARAGLTRRRLSLLSGVSERFLAQLESGQGNISIVLIRRVAAALGAELVELIGS” and “HMTETPDDLLAALKKNKKAQATFDAFSPSNKKEYILWITEAKTEATRTKRLETAIEWMSEGKARNW” are within 0.2 log units of each other in “soluble fraction (log2)” value: -0.0528 for the first, 0.0435 for the second.

First: HMTGGIWVQIQGAVERPGVYSLPRDSRLKDLLEAAGGFGRDADTEKVNQAARLEDGAMYRVPRQGEG
Second: HMIINKFERRKEIQIQFNNQERIKFKDFFLNLSKENIIVSFLILLELVRESLIDFSGTNENDIEFFIK
The “soluble fraction (log2)” value of the first is higher: 0.164 for the first, -0.834 for the second.

“HMDNPNVMAQVKSLLASKGLSEQEVKERLKAKGLNIDAMSDAEIAQNRSVIEQTIAELEAEKKKAG” and “HMEHIDVSGRAFDVSVSRLKRARRLTMRIDTHKQLVKISAPLHVESSTIRAFLARNQNWLEQQVEKR” are within 0.2 log units of each other in “soluble fraction (log2)” value: 0.287 for the first, 0.199 for the second.

With “HMTPPLSKIRNMTPDQQRSSVIEARKKGYNLLQLEGLAKAQGATPADLLVLRNAWAQSEFDQKR” the “soluble fraction (log2)” value was 0.331.

— the domain aggregation screens of Martell et al. (2025)
